Experimental data taken from patent US8889621B2, “Inhibiting binding of FGF23 to the binary FGFR-Klotho complex for the treatment of hypophosphatemia” (New York University, priority 2009, dated 2014).
Entries after “also recorded” stand apart in the source; their conditions may differ.

Tests used:
[1] = test system: tyrosine phosphorylation of FRS2α and downstream activation of MAP kinase cascade; assay: Phosphorylation of FRS2α and 44/42 MAP kinase in CHO Klotho cell line; type: cell-based
Description: Subconfluent HEK293-Klotho cells (Kurosu et al., “Regulation of Fibroblast Growth Factor-23 Signaling by Klotho,” J Biol Chem 281(10):6120-6123 (2006), which is hereby incorporated by reference in its entirety) were serum starved for 16 h and then stimulated for 10 min with either FGF23^28-251 (0.33 to 10 nM) or FGF23^180-251 (0.76 to 76.3 nM). In parallel experiments, cells were stimulated with FGF23^28-251 (1 nM) alone or with FGF23^28-251 (1 nM) mixed with increasing concentrations of either FGF23^180-251 (0.76 to 76.3 nM) or FGF23^180-205 (0.1 to 10 μM). Cell stimulation with FGF2 (2.9 nM) alone or FGF2 (2.9 nM) mixed with increasing concentrations of FGF23^180-251 (0.76 to 76.3 nM) served as controls. Similarly, subconfluent cells of a CHO cell line stably expressing Klotho (Imura et al., “Secreted Klotho Protein in Sera and CSF: Implication for Post-translational Cleavage in Release of Klotho Protein from Cell Membrane,” FEBS Lett 565(1-3):143-147 (2004), which is hereby incorporated by reference in its entirety) were treated with either FGF23^28-251 (0.067 to 20 nM) or FGF23^28-200 (0.04 to 12 nM). […]

[2] = test system: binary FGFR-Klotho complex; assay: Pull-down / co-precipitation of FGF23 proteins with FGFR-Klotho complex; type: binding; settings: HEK293-Klotho cell lysate
Sequence of binary FGFR-Klotho complex (O35082 35-1014, one chain of several): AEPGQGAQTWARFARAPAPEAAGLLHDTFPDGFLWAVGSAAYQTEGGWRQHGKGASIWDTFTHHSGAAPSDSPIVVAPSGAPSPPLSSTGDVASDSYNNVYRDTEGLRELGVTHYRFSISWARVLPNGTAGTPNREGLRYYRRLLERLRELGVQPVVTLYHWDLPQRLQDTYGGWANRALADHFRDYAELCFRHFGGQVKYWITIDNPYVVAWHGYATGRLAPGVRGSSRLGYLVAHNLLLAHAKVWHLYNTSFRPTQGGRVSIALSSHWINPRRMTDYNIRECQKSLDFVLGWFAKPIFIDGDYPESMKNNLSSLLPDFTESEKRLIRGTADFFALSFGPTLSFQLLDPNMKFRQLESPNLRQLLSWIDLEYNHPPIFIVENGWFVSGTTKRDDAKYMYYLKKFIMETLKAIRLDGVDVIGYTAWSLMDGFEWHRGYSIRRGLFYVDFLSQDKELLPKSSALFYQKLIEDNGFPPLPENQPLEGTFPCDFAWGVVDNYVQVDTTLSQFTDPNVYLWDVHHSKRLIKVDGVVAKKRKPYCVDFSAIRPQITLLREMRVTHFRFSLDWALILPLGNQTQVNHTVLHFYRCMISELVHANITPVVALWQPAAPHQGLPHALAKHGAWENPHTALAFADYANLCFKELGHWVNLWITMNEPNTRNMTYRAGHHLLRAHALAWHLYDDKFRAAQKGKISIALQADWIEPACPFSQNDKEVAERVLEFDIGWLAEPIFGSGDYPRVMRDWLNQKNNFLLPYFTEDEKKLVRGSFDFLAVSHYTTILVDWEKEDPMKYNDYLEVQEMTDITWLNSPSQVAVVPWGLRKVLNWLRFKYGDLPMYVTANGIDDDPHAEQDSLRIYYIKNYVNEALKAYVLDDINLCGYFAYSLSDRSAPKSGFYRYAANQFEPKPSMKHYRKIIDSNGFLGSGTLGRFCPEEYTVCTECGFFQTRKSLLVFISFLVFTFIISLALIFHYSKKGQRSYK
Description: A pull-down assay may also be used to confirm the existence of a protein:protein interaction (i.e. FGF23^180-251 binding to the binary FGFR-Klotho complex). One aspect of the present invention utilizes pull-down assays. These assays involved subconfluent cultures of a HEK293 cell line ectopically expressing the FLAG-tagged membrane-spanning form of murine Klotho, which were harvested and lysed. Cell lysate was incubated with FGF23^28-251, FGF23^28-200, FGF23^28-179, FGF23^180-251, or protein sample buffer, and binary complexes of Klotho and endogenous FGFR were isolated from cell lysate using anti-FLAG M2 agarose beads. […]
In parallel, subconfluent HEK293-Klotho cells (Kurosu et al., “Regulation of Fibroblast Growth Factor-23 Signaling by Klotho,” J Biol Chem 281(10):6120-6123 (2006), which is hereby incorporated by reference in its entirety) were transfected with expression vectors for V5-tagged FGFR1c, FGFR3c, or FGFR4 (Kurosu et al., “Regulation of Fibroblast Growth Factor-23 Signaling by Klotho,” J Biol Chem 281(10):6120-6123 (2006), which is hereby incorporated by reference in its entirety) and binding of FGF23 proteins/peptides to Klotho-FGFR complexes isolated from cell lysate was analyzed. […]

C57BL/6 mice = assay: Serum phosphate in C57BL/6 mice after IP injection; type: in vivo, mouse; settings: two injections of 5 μg, healthy C57BL/6 mice
Description: The phosphaturic activity of […] was examined in ˜6-week old C57BL/6 mice by a published protocol (Goetz et al., “Molecular Insights into the Klotho-dependent, Endocrine Mode of Action of Fibroblast Growth Factor 19 Subfamily Members,” Mol Cell Biol 27(9):3417-3428 (2007), which is hereby incorporated by reference in its entirety). FGF23^28-251, FGF23^28-200, or vehicle were injected IP into the animals. Each mouse received two injections at 8 h intervals, of 5 μg of protein per injection. Before the first injection and 8 h after the second injection, blood was drawn by cheek-pouch bleeding and spun at 3,000×g for 10 min to obtain serum. Serum phosphate levels were determined using Phosphorus Liqui-UV reagent (Stanbio Laboratory).

B1: FGF23^28-200: C-terminally truncated FGF23 protein (A28 to T200), lacks the last 51 C-terminal amino acids (protein)
chain: ASPLLGSSWGGLIHLYTATARNSYHLQIHKNGHVDGAPHQTIYSALMIRSEDAGFVVITGVMSRRYLCMDFRGNIFGSHYFDPENCRFQHQTLENGYDVYHSPQYHFLVSLGRAKRAFLPGMNPPPYSQFLSRRNEIPLIHFNTPIPRQHTQSAEDDSERDPLNVLKPRARMT
induction of phosphorylation of FRS2α and activation of MAP kinase cascade [1]: at a dose comparable to that of FGF23^28-251 | co-precipitation with the binary FGFR-Klotho complex [2]: still retains the ability to co-immunoprecipitate | reduction of serum phosphate concentration (phosphaturic activity) (C57BL/6 mice): nearly as effective as the full-length ligand; also recorded: exhibits phosphaturic activity
